The target of experiment [1] is full-length wild-type p97 (^FLp97^wt) (UniProt P55072). Kind of experiment: GST pull-down. The following applies: 2 mM AMP-PNP; n=3; parent: est. 1.0; read off a plot.
In experiment [2] the target is VIMP of canine pancreas microsomes (dog (endogenous in canine pancreas microsomes)). As to the kind of experiment: co-IP; immunodepletion: canine pancreas microsomes solubilized in 1% deoxyBigCHAP, supernatant incubated three times with Protein A beads containing anti-VIMP antibodies; unbound fractions immunoblotted.
The target in experiment [3] is Np97 (N domain alone of wild-type p97) (UniProt P55072). Kind of experiment: ITC; VIMPx titrated into p97; iTC200, 25 C; 50 mM Tris pH 8.0, 150 mM NaCl, 2 mM MgCl2, 5% glycerol; no nucleotide added; one-site model. For orientation: In ITC the heat of successive injections is recorded.
Sequence of Np97 (N domain alone of wild-type p97) (P55072 whole entry): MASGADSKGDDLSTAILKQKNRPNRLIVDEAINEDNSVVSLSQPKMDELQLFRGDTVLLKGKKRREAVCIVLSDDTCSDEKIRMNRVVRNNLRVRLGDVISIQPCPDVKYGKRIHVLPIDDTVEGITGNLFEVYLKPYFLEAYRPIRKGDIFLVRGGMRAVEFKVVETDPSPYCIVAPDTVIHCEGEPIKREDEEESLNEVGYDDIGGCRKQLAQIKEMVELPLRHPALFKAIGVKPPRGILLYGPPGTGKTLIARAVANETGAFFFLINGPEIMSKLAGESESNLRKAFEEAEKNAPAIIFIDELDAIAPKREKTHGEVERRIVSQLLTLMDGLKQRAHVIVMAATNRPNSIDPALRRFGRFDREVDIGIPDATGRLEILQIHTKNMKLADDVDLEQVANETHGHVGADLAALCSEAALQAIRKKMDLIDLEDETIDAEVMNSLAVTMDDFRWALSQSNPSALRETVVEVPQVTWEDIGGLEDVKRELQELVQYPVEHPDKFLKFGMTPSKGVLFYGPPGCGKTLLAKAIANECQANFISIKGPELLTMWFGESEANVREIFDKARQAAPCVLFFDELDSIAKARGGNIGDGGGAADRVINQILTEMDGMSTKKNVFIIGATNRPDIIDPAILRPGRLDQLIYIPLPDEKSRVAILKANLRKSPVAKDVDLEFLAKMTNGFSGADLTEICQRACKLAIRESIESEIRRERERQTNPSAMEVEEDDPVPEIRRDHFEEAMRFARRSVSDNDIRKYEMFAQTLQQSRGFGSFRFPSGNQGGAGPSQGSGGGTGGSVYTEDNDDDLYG

The text below walks through data of publication PMC5725882.

One may read the Kd as the constant that tells how readily two partners part at equilibrium. Read a high Kd as a looser complex. Usually stoichiometry N stands for a count of units in the complex or per binding partner.

Sequence of full-length wild-type p97 (^FLp97^wt) (P55072 whole entry): as above

In the case of GST-tagged VIMP-N10 L93A, in experiment [1], the ratio to parent is 0.17.
As to GST-tagged VIMP-N10 Q79A, in experiment [1], the ratio to parent was found to be 0.87.
The same measure, in the same setting: for GST-tagged VIMP-N10 M89A the value was 0.24.
The same measure, in the same setting: for GST-tagged VIMP-N10 R78A the value was 0.24.
With “ER membrane-associated p97 of canine pancreas microsomes (natural protein)”, the percent of microsome-associated p97 lost by co-depletion with VIMP in experiment [2] is below 90%.
In the case of GST-tagged VIMP-N10 R86A, the ratio to parent in experiment [1] amounted to 0.07.
Turning to GST-tagged VIMP-N10 L82A, in experiment [1], the ratio to parent came out at 0.14.
In experiment [3], “VIMPx (VCP-interacting membrane protein, residues 49-122) (from UniProt Q9BQE4 49-122) (domain or fragment)” gave a Kd of 6.58 µM and a stoichiometry N of 1.27.
On to GST-tagged VIMP-N10 K88A, for which the ratio to parent in experiment [1] came out at 0.14.
Same read-out and setting: for GST-tagged VIMP-N10 K77A the value was 0.8.
Consider GST-tagged VIMP-N10 V97A, for which the ratio to parent in experiment [1] was found to be 0.04.
